# Test results reported in the supplement of paper PMC12764529.
# ± gives the half width of the 95% confidence interval.
# Experiments:
# [1] = folding stability dG unfold (combined trypsin and chymotrypsin); higher = more stable
# How it was run: (§1)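 Bayesian fitting of sequencing counts gave K50 for each design. Unfolding free energy followed by setting this against a sequence-predicted unfolded-state K50 and a shared folded-state K50, either per protease or with trypsin and chymotrypsin combined. The designs, under 80 residues and lacking cysteine, were digested in a PA-tagged cDNA display format at 11 threefold-diluted protease concentrations and without protease, and only those with AlphaFold2 dimer inter-PAE above 15 were kept.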
# [2] = folding stability dG unfold from trypsin proteolysis; higher = more stable
# How it was run: as §1
# [3] = folding stability dG unfold from chymotrypsin proteolysis; higher = more stable
# How it was run: as §1
Sequence,folding stability dG unfold [1] [kcal/mol],folding stability dG unfold [2] [kcal/mol],folding stability dG unfold [3] [kcal/mol]
SAGGSAGGRVVLSAEEIEKLKPGDEIELLVRDKETGEWRRVKARVVRIERVGDRVYVEIEIEPESAGGSAGG [r6_753_TrROS_Hall],4.29 ± 0.12,4.53 ± 0.25,4.19 ± 0.057
SAGGSAGGSAGGSMSVSSVGSSSGAGMIVKTTYFPGSGGTTVVLIEPASGVVLATTPVPGSAGGSAGGSAGG [r7_154_JUSTAS],0.374 ± 0.13,0.493 ± 0.04,0.272 ± 0.079
SAGGSAGGMKTVTTPVYAVMPEEEAEALAKELEEKYPNVEIEVEREELPDGRVRVTITVTKPLGSAGGSAGG [r6_105_JUSTAS],1.4 ± 0.067,1.19 ± 0.022,1.55 ± 0.054
SAGGSASAEELAAELARRLAEELGLEVTKVEITEVTPDRVVVRVTVTVTLPNGEKVTRELTLVLEPSAGGSA [r15_276_TrROS_Hall],3.05 ± 0.11,2.16 ± 0.054,3.24 ± 0.12
SAGGSAGGSAPGSMLRIPVSEEELKKKGLTPEELAKEIRERYPELPESVVVEFPPDGNIVIVESAGGSAGGS [r12_50_JUSTAS],1 ± 0.16,0.906 ± 0.05,0.885 ± 0.056
SAGMLSSETVPFPDSEITIEYDPETGTVKITTTTTTSSPSLDYRTGKPGSVSSSTTTSFEVEAEPGAELSAG [r5_195_JUSTAS],0.254 ± 0.18,0.0129 ± 0.076,0.323 ± 0.17
SAGGSAGGSAGGEKTIRITVKNENGETLEIEVSEEDAEELLKALEDAGISLEEITRIEPVSAGGSAGGSAGG [r7_745_TrROS_Hall],1.8 ± 0.15,1.92 ± 0.12,1.62 ± 0.098
SAGGMIRITEGPNYYKITFWMPPNNPSLLEEIADFFGNPKVDTEPIPEDGMTRHEITLPLDDPEAIKSAGGS [r16_479_TrROS],1.19 ± 0.27,0.765 ± 0.11,1.37 ± 0.23
SAGGSAGGSAGMTLRLKIRVYDPETREEVEEKEIEVELPPGASLEELLAALPPEQVEVEFSAGGSAGGSAGG [r17_339_TrROS_Hall],0.848 ± 0.15,0.534 ± 0.12,1.1 ± 0.2
SAGGSAGGSAGGSKPNNFKNIPKPVFKFKITTTEWKKNKDGTWTPVSTSTAEVTVWSNTSAGGSAGGSAGGS [r4_288_TrMRF],3.88 ± 0.21,3.2 ± 0.11,4.29 ± 0.1
SAMTVTSSVTTQPVPDSSDTVTYTNITVTIGNQTVTYTETVTYSSTDPTLRTVTTLLPDGTTVTTTVPVGSA [r9_897_JUSTAS],2.18 ± 0.13,1.94 ± 0.1,2.6 ± 0.084
SAGGSAEIPPGAKLEIDEMSFDPGNGRIEMMFKIEDPDGEPLWQIRVSWEFNPENGKMKLDIEIMPSAGGSA [r15_1028_TrROS],3.49 ± 0.14,2.51 ± 0.19,3.8 ± 0.12
SAGGSAGGSAGWGLIITIEVEGEYDPANGQWSLNIEIEIQPIRIPPPKEPPPDDNPNNDDSAGGSAGGSAGG [r17_454_TrROS],3.86 ± 0.32,2.27 ± 0.23,4.08 ± 0.15
SAGGSDEHEYKGTGRDPDNGQTREETYRVEPVVPPIPISISVSLNLDIDPNGNLNWDFNISIGIGISAGGSA [r2_326_TrROS],3.33 ± 0.37,2.78 ± 0.2,3.81 ± 0.33
SAGGSAGGSAGYISIMIFFVLPDGYAIMVKYTFELPPNGNPKIENIEIHVMKLPPGEPIFSAGGSAGGSAGG [r11_517_TrROS],5.13 ± 0.3,4.22 ± 0.3,5.35 ± 0.17
SAGGSAGGSAGLTLRVKVKVELEYDPETNELTLRVEVEIELFPPPPLVVLSKEQLEELEESAGGSAGGSAGG [r17_454_TrROS_Hall],3.21 ± 0.39,2.67 ± 0.18,3.65 ± 0.24
SAGGSAGGSAGGEPDKVSIHINITEEFIEQIKNGKPIPPWARPAIKYAQKKGKKVEIVWSAGGSAGGSAGGS [r10_890_TrROS],-0.498 ± 0.26,-1.04 ± 0.61,-0.532 ± 0.53
SAGGSPATVLSSSTLSTTPLPDGTTLTTSETVTLLPNGEPVVTTTTTTTAPDGSVTTTTTTTPLDAASAGGS [r16_261_JUSTAS],0.885 ± 0.047,1.05 ± 0.043,0.671 ± 0.043
SAGGSAGGVPEVVEEVAREVDPRIVTRVEVRVFEPPPEYRLVVVVVELRLPTERRFVPRVVRLRSAGGSAGG [r6_630_TrMRF],3.25 ± 0.31,2.85 ± 0.19,3.49 ± 0.066
SITITRDPDYYTLRIPPGMDSVEEVQDFLKELGFKLPPGVKDIQVEEVDKENNQVTITIQLDDPEAIQDLSA [r9_820_TrROS],0.798 ± 0.2,0.601 ± 0.085,0.836 ± 0.28
SAGGSAGGSAGPPPIEELLEQAKKNPNRPITIRNPGGYYIRITVKPDPNGKPEVEIEPVPSAGGSAGGSAGG [r11_300_TrROS],0.263 ± 0.16,0.259 ± 0.09,0.336 ± 0.25

Sequence,folding stability dG unfold [1] [kcal/mol],folding stability dG unfold [2] [kcal/mol],folding stability dG unfold [3] [kcal/mol]
SAGGSKPLKKIVIPLTPEELKKLKGKKVKITIKVDGKEYEIEFIDGYAVITVPAGEKVEITKIEIESAGGSA [r2_246_TrROS_Hall],2.41 ± 0.22,2.47 ± 0.15,2.36 ± 0.12
SAGGSAGGSEITILIKDENGYLIKVKVELKLKKNKDGKKTLELKIEITEIYKVPSKEEAKKLLSAGGSAGGS [r12_915_TrROS_Hall],1.78 ± 0.22,0.755 ± 0.1,2.08 ± 0.11
SAGGMTLEELKAKITKVEVEEREDGSLKLRLTIKVKNEDGSEEEIELTITLPEEEKNMSLEELLEKLLSAGG [r13_319_TrROS_Hall],4.03 ± 0.13,4.26 ± 0.27,3.82 ± 0.12
SAGGGMTFNFTAPDGTPYEDVTTTPLPDGSTLVTVTQEDPKNPGVVTVTLIRLPSGADALEVTSGPVVSAGG [r13_370_JUSTAS],0.944 ± 0.095,0.972 ± 0.07,0.803 ± 0.087
SAGGGNVTKTSTTTLPNGTTLVTYTGTSPSSAGSKNLSLLSLPFDVTVTKVEFDPNTGKVTIETVIPPSAGG [r13_413_JUSTAS],0.978 ± 0.13,0.516 ± 0.059,1.25 ± 0.14
SISITLPDGTKTVSQSFNPEGNTITYTMEAPGKKITITLTEKVVGGSKEISVKITTDPVPLTPEEVAALKAS [r1_154_JUSTAS],1.86 ± 0.12,2.03 ± 0.13,1.94 ± 0.085
SAGGANIHVRMENPGDGKPMSFMIPVKEVREAKQEGKDEIKIPFGGGPMKVEIEPLPDGWVHIRMRMPSAGG [r13_171_TrROS],0.201 ± 0.26,0.417 ± 0.27,-0.0135 ± 0.4
SAGGMISEEDIEAAAKAIVEAAKNGDPERIEEEYARLEEALEEAEKEGDPERRGRLAKAVEAAKKLLGSAGG [r13_137_TrMRF],1.64 ± 0.12,1.43 ± 0.02,1.75 ± 0.043
SAGKKVKKITLTIKNKETGEYYKAEVIENENGEKYIKIINKKTGKIYIFKIKDGKIEPVKEISLKDIKPSAG [r5_619_TrROS_Hall],2.83 ± 0.2,1.85 ± 0.067,3.11 ± 0.053
SAGGSAGGSAGGSDDPDGKPKPQIPPIKVEPIPIKDPNGWSIEIYYFPWNGMLIISFYNSAGGSAGGSAGGS [r4_305_TrROS],4.26 ± 0.2,3.3 ± 0.22,4.34 ± 0.12
MLVVEVPAEELSPEQVRERIRAALRAAREAGIRDARIVIVVEASEEQRERLRRELRELAEEEGLEVEIVERS [r1_387_TrROS_Hall],5.34 ± 0.18,4.83 ± 0.17,5.52 ± 0.2
SKPDPVKIEIEQERNPNGQPQHTIKIQDKGKDRKFPIHNMSIDEFDPDDPYIKIRSPGNGQSHTIPPDDLSA [r9_1186_TrROS],0.832 ± 0.098,-0.0606 ± 0.073,1.22 ± 0.022
SAGMKITVKAVLKKGEKEYEVEFEADSLEEIIGAILELYEKLNFDELRVKIKIGDKEYEIELPFLIPDESAG [r5_946_TrMRF],4.24 ± 0.94,4.28 ± 0.41,4.2 ± 0.68
SAGGPETRTFTIPAAPATVTVTLEKVGDGYRVSLTLTNPDGQTVEVPPDQPVVIPAGASVGAALAPESAGGS [r16_669_TrMRF],1.35 ± 0.1,1.01 ± 0.034,1.53 ± 0.091
SAGGPVLRLSFPTRTPDGELVRVEVVYDPETGALLVRVYSLTRPNRAVLYLVDPENPLTVLRAEELPLSAGG [r13_400_TrMRF],2.82 ± 0.18,2.47 ± 0.11,3.01 ± 0.071
SAGGSSSVGVDSSDPEKTKEAILKAYGTDAEPVFTTDPATGRLTITVPETGDVHTVTAGTRTETAASAGGSA [r2_205_JUSTAS],0.801 ± 0.085,1.27 ± 0.042,0.224 ± 0.068
SAGGSAGGSAGGGLSSAPPPVVALSSSVSLVPSPSGGILTVTTTTDAGSGTTTTTTTALSAGGSAGGSAGGS [r10_1137_JUSTAS],1.71 ± 0.042,2.44 ± 0.068,0.758 ± 0.025
SAGSPATLRAQAEEEARALAAELGAEVTVDVTVEPVPGEYVVRTTATLTFPGGEVRTLPRTTRVPRSLVSAG [r5_609_JUSTAS],0.953 ± 0.08,0.671 ± 0.071,1.09 ± 0.08
SAGGSAGGSAGIKIEWEPNPNGSWRMKIEIPNPNGNPKKIEVWANPNGKIREDEAKEILNSAGGSAGGSAGG [r11_759_TrROS],1.02 ± 0.39,0.707 ± 0.12,1.18 ± 0.24
SAGGSAGGSAGGKKKIKVELEVKEDGTIRMKATTEDGEEIETEIKVEKVEVTVFLPPEKSAGGSAGGSAGGS [r10_237_TrROS_Hall],1.55 ± 0.28,1.74 ± 0.26,1.18 ± 0.23
SAGGSAGGSAGKIPEIIKKTNAVEKDGKIFLGIKTDGKYYLIELEKKTLKIKKIEPFPDKSAGGSAGGSAGG [r11_808_TrMRF],0.488 ± 0.085,-0.135 ± 0.14,0.776 ± 0.12
